31 molecules from patent publication US20210355194A1 (TWIST BIOSCIENCE, published 2021) can be followed below.

The term Kd denotes the free concentration of one partner at which half of the binding sites on the other are occupied at equilibrium, for simple one-to-one binding. Low readings indicate higher affinity, high ones lower affinity.

To fix the notation:
B1: variant 2-1 (antibody, V domains shown)
VH: EVQLLESGGGLVQPGGSLRLSCAASGFTFSNYATDWVRQAPGKGLEWVSIISGSGGATYYADSVKGRFTISRDNSKNTLYLQMNSLRAEDTAVYYCAKGGYCSSDTCWWEYWLDPWGQGTLVTVSS
VL: DIQMTQSPSSLSASVGDRVTITCRASQSIHRFLNWYQQKPGKAPKLLIYAASNLHSGVPSRFSGSGSGTDFTLTISSLQPEDFATYYCQQSYGLPPTFGQGTKVEIK
B2: variant 6-45 (Fc fusion)
VHH: EVQLVESGGGLVQPGGSLRLSCAASGNMFSINAMGWFRQAPGKEREFVTLISWSSGRTSYADSVKGRFTISADNSKNTAYLQMNSLKPEDTAVYYCASLGYCSGGSCFDYWGQGTLVTVSS
B3: variant 6-10 (Fc fusion)
VHH: EVQLVESGGGLVQPGGSLRLSCAASGSIASIHAMGWFRQAPGKEREFVAAISRSGGFGSYADSVKGRFTISADNSKNTAYLQMNSLKPEDTAVYYCARDDKYYDSSGYPAYFQHWGQGTLVTVSS
B4: variant 6-38 (Fc fusion)
VHH: EVQLVESGGGLVQPGGSLRLSCAASGNTFSGGFMGWFRQAPGKEREFVAVISSLSSKSYADSVKGRFTISADNSKNTAYLQMNSLKPEDTAVYYCAKVDSGYDYWGQGTLVTVSS
B5: variant 5-60 (Fc fusion)
VHH: EVQLVESGGGLVQPGGSLRLSCAASGRSFSSHRMGWFRQAPGKEREFVAAIMWSGSHRNYADSVKGRFTISADNSKNTAYLQMNSLKPEDTAVYYCAAIAYEEGVYRWDWGQGTLVTVSS
B6: variant 5-32 (Fc fusion)
VHH: EVQLVESGGGLVQPGGSLRLSCAASGFTPDNYAMGWFRQAPGKEREFVAALGWSGVTTYHYYADSVKGRFTISADNSKNTAYLQMNSLKPEDTAVYYCASDESDAANWGQGTLVTVSS
B7: variant 6-55 (Fc fusion)
VHH: EVQLVESGGGLVQPGGSLRLSCAASGFTMSSSWMGWFRQAPGKEREFVARITSGGSTGYADSVKGRFTISADNSKNTAYLQMNSLKPEDTAVYYCASVDGYFDYWGQGTLVTVSS
B8: variant 6-52 (Fc fusion)
VHH: EVQLVESGGGLVQPGGSLRLSCAASGDTYGSYWMGWFRQAPGKEREVVAAITSGGSTVYADSVKGRFTISADNSKNTAYLQMNSLKPEDTAVYYCARVDSRFDYWGQGTLVTVSS
B9: variant 6-46 (Fc fusion)
VHH: EVQLVESGGGLVQPGGSLRLSCAASGLTFSAMGWFRQAPGKEREFVALIRRDGSTIYADSVKGRFTISADNSKNTAYLQMNSLKPEDTAVYYCAALGILFGYDAFDIWGQGTLVTVSS
B10: variant 6-20 (Fc fusion)
VHH: EVQLVESGGGLVQPGGSLRLSCAASGSTLPYHAMGWFRQAPGKEREFVAAITWNGASTSYADSVKGRFTISADNSKNTAYLQMNSLKPEDTAVYYCARDRYYDTSASYFESETWGQGTLVTVSS
B11: variant 5-56 (Fc fusion)
VHH: EVQLVESGGGLVQPGGSLRLSCAASGRTFSSNMGWFRQAPGKEREFVARIFGGDRTLYADSVKGRFTISADNSKNTAYLQMNSLKPEDTAVYYCADINGDWGQGTLVTVSS
B12: variant 6-43 (Fc fusion)
VHH: EVQLVESGGGLVQPGGSLRLSCAASGRTFSSYAMMGWFRQAPGKEREFVASVNWDASQINYADSVKGRFTISADNSKNTAYLQMNSLKPEDTAVYYCTTLGAVYFDSSGYHDYFDYWGQGTLVTVSS
B13: variant 6-5 (Fc fusion)
VHH: EVQLVESGGGLVQPGGSLRLSCAASGRTFTMGWFRQAPGKEREFVASTNSAGSTNYADSVNGRFTISADNSKNTAYLQMNSLKPEDTAVYYCTTVDQYFDYWGQGTLVTVSS
B14: variant 5-1 (Fc fusion)
VHH: EVQLVESGGGLVQPGGSLRLSCAASGGTFSSIGMGWFRQAPGKEREFVAAISWDGGATAYADSVKGRFTISADNSKNTAYLQMNSLKPEDTAVYYCAKEDVGKPFDWGQGTLVTVSS
B15: variant 6-2 (Fc fusion)
VHH: EVQLVESGGGLVQPGGSLRLSCAASGFTMSSSWMGWFRQAPGKEREFVTVISGVGTSYADSVKGRFTISADNSKNTAYLQMNSLKPEDTAVYYCARGPDSSGYGFDYWGQGTLVTVSS
B16: variant 6-34 (Fc fusion)
VHH: EVQLVESGGGLVQPGGSLRLSCAASGSAFRSNAMGWFRQAPGKEREFVAHISWSSKSTYYADSVKGRFTISADNSKNTAYLQMNSLKPEDTAVYYCATYCSSTSCFDYWGQGTLVTVSS
B17: variant 6-73 (Fc fusion)
VHH: EVQLVESGGGLVQPGGSLRLSCAASGHTFSGYAMGWFRQAPGKEREFVAVITREGSTYYADSVKGRFTISADNSKNTAYLQMNSLKPEDTAVYYCARLGGEGFDYWGQGTLVTVSS
B18: variant 6-58 (Fc fusion)
VHH: EVQLVESGGGLVQPGGSLRLSCAASGRAVSTYAMGWFRQAPGKEREFVAAISGSENVTSYADSVKGRFTISADNSKNTAYLQMNSLKPEDTAVYYCLSVTGDTEDYGVFDTWGQGTLVTVSS
B19: variant 5-37 (Fc fusion)
VHH: EVQLVESGGGLVQPGGSLRLSCAASGSTFSINAMGWFRQAPGKEREFVGGISRSGATTNYADSVKGRFTISADNSKNTAYLQMNSLKPEDTAVYYCAADGVPEYSDYASGPVWGQGTLVTVSS
B20: variant 5-47 (Fc fusion)
VHH: EVQLVESGGGLVQPGGSLRLSCAASGFTFGSYDMGWFRQAPGKEREFVTAINWSGARTAYADSVKGRFTISADNSKNTAYLQMNSLKPEDTAVYYCAARSVYSYEYNWGQGTLVTVSS
B21: variant 6-13 (Fc fusion)
VHH: EVQLVESGGGLVQPGGSLRLSCAASGLTFNDYAMGWFRQAPGKEREFVAHIPRSTYSPYYADSVKGRFTISADNSKNTAYLQMNSLKPEDTAVYYCAFLVGPQGVDHGAFDVWGQGTLVTVSS
B22: variant 6-76 (Fc fusion)
VHH: EVQLVESGGGLVQPGGSLRLSCAASGLAFDFDGMGWFRQAPGKEREGVAAINSGGSTYYADSVKGRFTISADNSKNTAYLQMNSLKPEDTAVYYCARFFRAHDYWGQGTLVTVSS
B23: variant 6-22 (Fc fusion)
VHH: EVQLVESGGGLVQPGGSLRLSCAASGRTFSEVVMGWFRQAPGKEREFVATIHSSGSTSYADSVKGRFTISADNSKNTAYLQMNSLKPEDTAVYYCVRVTSDYSMDSWGQGTLVTVSS
B24: variant 6-32 (Fc fusion)
VHH: EVQLVESGGGLVQPGGSLRLSCAASGFTLDYYDMGWFRQAPGKEREFVALISWSGGSTYYADSVKGRFTISADNSKNTAYLQMNSLKPEDTAVYYCATDFYGWGTRERDAFDIWGQGTLVTVSS
B25: variant 6-37 (Fc fusion)
VHH: EVQLVESGGGLVQPGGSLRLSCAASGHTFSTSWMGWFRQAPGKEREFVATINSLGGTNYADSVKGRFTISADNSKNTAYLQMNSLKPEDTAVYYCARVSSGDYGMDVWGQGTLVTVSS
B26: variant 5-67 (Fc fusion)
VHH: EVQLVESGGGLVQPGGSLRLSCAASGFNVNDYAMGWFRQAPGKEREFVAGITSSVGVTNYADSVKGRFTISADNSKNTAYLQMNSLKPEDTAVYYCAADIFFVNWGRGTLVTVSS
B27: variant 6-18 (Fc fusion)
VHH: EVQLVESGGGLVQPGGSLRLSCAASGLTFRNYAMGWFRQAPGKEREFIAGMMWSGGTTTYADSVKGRFTISADNSKNTAYLQMNSLKPEDTAVYYCAREGYYYDSSGYLNYFDYWGQGTLVTVSS
B28: variant 6-103 (Fc fusion)
VHH: EVQLVESGGGLVQPGGSLRLSCAASGRTSSPIAMGWFRQAPGKEREPVAVRWSDDYTYYADSVKGRFTISADNSKNTAYLQMNSLKPEDTAVYYCAKKLGGYYAFDIWGQGTLVTVSS
B29: variant 6-78 (Fc fusion)
VHH: EVQLVESGGGLVQPGGSLRLSCAASGRTYDAMGWFRQAPGKEREFVASVTSGGYTHYADSVKGRFTISADNSKNTAYLQMNSLKPEDTAVYYCAKFGRKIVGATELDYWGQGTLVTVSS
B30: variant 6-60 (Fc fusion)
VHH: EVQLVESGGGLVQPGGSLRLSCAASGDTYGSYWMGWFRQAPGKEREFVATISQSGAATAYADSVKGRFTISADNSKNTAYLQMNSLKPEDTAVYYCAGLLRYSGTYYDAFDVWGQGTLVTVSS
B31: variant 6-24 (Fc fusion)
VHH: EVQLVESGGGLVQPGGSLRLSCAASGFTLDYYAMGWFRQAPGKEREFVAAINWSGDNTHYADSVKGRFTISADNSKNTAYLQMNSLKPEDTAVYYCARAPFYCTTTKCQDNYYYMDVWGQGTLVTVSS

The first assay deals with Acro COVID S1 (S1N-C82E8) (SARS-CoV-2, UniProt P0DTC2 16-685). Kind of assay: phage ELISA. In general terms: ELISA stands for enzyme-linked immunosorbent assay.
As to B1, the “specificity ELISA, fold over background” value was 39.3 fold over background.

Another assay has as its target CV S-protein construct 6 trimer TP31001F (SARS-CoV-2, UniProt P0DTC2 14-1208). Kind of assay: SPR. A general note: SPR reads the build-up and loss of mass on a sensor chip optically.
B2: the Kd was 1.3 nM.

The molecule B3 had a Kd of 0.6 nM. Same read-out and setting: the same measure for B4: 0.5 nM; for B5: 0.8 nM; for B6: 0.1 nM.

Molecule B7 registered a Kd of 0.3 nM. On the same count and under the same terms, the same measure for B8: 1.1 nM; for B9: 1.9 nM. With B10, the dissociation constant Kd is 0.3 nM. Compared with the last molecule, the Kd is about 6.3-fold lower. Same read-out and setting: the same measure for B11: 2.77 nM; for B12: 0.7 nM. The same measure, in the same setting: the same measure for B13: 0.8 nM. The same measure, in the same setting: the same measure for B14: 0.4 nM; for B15: 1.2 nM. B16 returned a Kd of 0.7 nM. Turning to B17, the Kd came to 0.52 nM. Same read-out and setting: the same measure for B18: 1 nM; for B19: 1.8 nM; for B20: 0.7 nM. On the same count and under the same terms, the same measure for B21: 0.6 nM; for B22: 1.77 nM.

In turn, B23 displayed a Kd of 1.8 nM. The Kd values of the last two molecules are within 1.5-fold of each other. On to B24, for which the Kd is 0.1 nM.

B25 displayed a Kd of 0.7 nM. This Kd is about 7-fold higher than that of the molecule before. Still for that read-out and setting: the same measure for B26: 1 nM; for B27: 5.3 nM; for B28: 1 nM. Molecule B29 registered a Kd of 0.4 nM.

The molecule B30 yielded a Kd of 0.1 nM. Same read-out and setting: the same measure for B31: 0.2 nM.
